Experimental data reported in patent US9827292B2, “Use of KGF in the treatment of menopausal disorders” (Università degli Studi di Roma “La Sapienza”, priority 2012, dated 2017).

B1: keratinocyte growth factor (protein, listed as Homo sapiens)
chain: MHKWILTWILPTLLYRSCFHIICLVGTISLACNDMTPEQMATNVNCSSPERHTRSYDYMEGGDIRVRRLFCRTQWYLRIDKRGKVKGTQEMKNNYNIMEIRTVAVGIVAIKGVESEFYLAMNKEGKLYAKKECNEDCNFKELILENHYNTYASAKWTHNGGEMFVALNQKGIPVRGKKTKKEQKTAHFLPMAIT
notes: human recombinant KGF (Upstate Biotechnology)

Assays:
[1] = system: ERalpha; assay: Immunofluorescence localisation of ER in MCF-7 cells; assay type: cell-based, human; conditions: 5 or 30 min treatment, FIG. 4B
Description: The oestrogen receptor α-positive MCF-7 human breast adenocarcinoma cell line, acquired from American Type Culture Collection (no. HTB-22, ATCC-LGC Promochem, Teddington, UK), was cultured in Dulbecco's modified eagle's medium (DMEM; Invitrogen, Karlsruhe, Germany), supplemented with 10% foetal bovine serum (FBS; Invitrogen) and antibiotics. Primary cultures of human oestrogen-sensitive keratinocytes (KCs) were established from 1 cm^2 full-thickness mucosal biopsy of the vaginal vestibule. […]
The cells, grown on glass coverslips, were treated as described above, then fixed in 4% paraformaldehyde in phosphate-buffered saline (PBS) for 30 min at 25° C., followed by treatment with 0.1 M glycine in PBS for 20 min at 25° C. and with 0.1% Triton X-100 in PBS for an additional 5 min at 25° C. to allow permeabilisation. […] Fluorescence signals were analysed by recording stained images using a cooled CCD colour digital camera SPOT-2 (Diagnostic Instruments Incorporated, Sterling Heights, Mich.) and Axiovision software (Carl Zeiss Inc., Oberkochen, Germany).
The percentage of Ki67-positive cells was evaluated by counting, for each treatment, a total of 500 cells, randomly taken from ten microscopic fields in three different experiments, expressed as mean value±95% CI and recorded as graphs. […]

[2] = system: oestrogen response elements (EREs); assay: ERE-LUC dual-luciferase reporter assay in MCF-7 cells; assay type: cell-based, human; conditions: 24 h treatment, FIG. 5
Description: MCF-7 cells were seeded onto 24-well plates with a cell/well density of […] and were co-transfected with 1 μg of the 3×ERE TATA LUC construct, a plasmid containing the reporter gene for firefly luciferase under the control of three DNA sequences to which the ER binds, called oestrogen response elements (EREs) (Addgene), and with 300 ng of control pRL-TK plasmid (renilla luciferase) for normalisation of the efficiency of the transfection process. The transfections were carried out using lipofectamine 2000 (Invitrogen) according to manufacturer's instructions. After 6 h, the cells were treated with KGF or E2. The luciferase activity was determined using a dual-luciferase reporter assay system (Promega) 24 h after the treatment, according to manufacturer's protocol. All the transfections were conducted in triplicate.

[3] = system: vaginal epithelium; assay: Vaginal atrophy model in ovariectomised CD1 mice, local hydrogel treatment, histology; assay type: in vivo, mouse; conditions: for cornification of vaginal epithelium (hematoxylin and eosin) / stratification of the vaginal epithelium and hyperkeratosis (hematoxylin and eosin): low and high doses, 60 days; for cornification of vaginal epithelium (hematoxylin and eosin): not in vehicle group, FIG. 8A; for stratification of the vaginal epithelium and hyperkeratosis (hematoxylin and eosin): versus vehicle only, FIG. 7B
Description: The mouse strain CD1 was used in this study (Charles Rivers). The mice were held in a standard housing for laboratory animals with controlled lighting (12 h/day) and temperature (25±1° C.) and were provided with food and water ab libitum. All the experimental protocols concerning animals were in line with the Guidelines of Sapienza University for the care and use of laboratory animals and were approved by the Ethical Committee of the aforesaid institution. Forty female mice were subjected to an ovariectomy for the purpose of inducing vaginal atrophy and were administered a diet of Altromin C1000 without phytoestrogens (Altromin, Lage, Germany) for the duration of the experiments. After 30 days, the mice were treated locally, introducing daily into the vaginal canal 25 μl of hydrogel loaded with KGF (10 or 30 ng/day) or with E2 (30 ng/day or 1 μg/day). A control group was treated only with hydrogel. After 60 days of treatment, the mice were killed and the vaginas were immediately explanted, fixed in formalin and processed for histological analysis.
Serial sections of the vaginal mucus obtained from four groups of mice were stained with hematoxylin/eosin, placed permanently under a glass plate and analysed histologically. The thickness and the strata of epithelial cells of the vagina were then determined in three animals for each group, in three images for each animal (10× enlargement). Mean values were obtained from five measurements of each image. For the purpose of quantifying the thickness of the vaginal epithelium, the vertical distance between the lower surface of the cells in the stratum basale and the apical surface of the cells in the stratum superficiale was measured with the aid of NIH Image J v 1.56 (National Institutes of Health, Bethesda, Md.), and denoted as thickness. To estimate the number of vaginal epithelial layers, the layer of cells covering five contiguous basal cells was counted in the sample.
Serial sections of the vaginal mucus obtained from the four groups of mice were analysed for the expression of PCNA (Proliferating Cell Nuclear Antigen, a marker of cell proliferation) by means of immunohistochemistry. The sections were elaborated using the technique of avidin-biotin-peroxidase complex (DAKO, Glostrup, Denmark) and incubated with mouse anti-A-rat-PCNA monoclonal antibody (clone P10, 1:4000) (Abcam, Cambridge, UK), which recognises proliferant cells.
All the animals enrolled in the study were fed with a special diet devoid of oestrogens (special altromin C1000 phytoestrogen-free diet). The mice subject to an ovariectomy were then divided into […]: one group received no treatment; one group received only the vehicle; one group received the vehicle+E2 30 ng/day; one group received the vehicle+E2 1 μg/day; one group received the vehicle+KGF 10 ng/day; and one group received the vehicle+KGF 30 ng/day.
The animals were killed and the vaginas removed and immediately fixed in formalin and processed for histology. Vaginal epithelium of the treated mice was analysed histologically by means of hematoxylin/eosin and was compared with the epithelium of the group of mice not subjected to ovariectomy (FIGS. 7B and 8A). The criteria adopted in order to determine the trophism of the vaginal mucus were the thickness (evidenced by counting the number of epithelial layers present and by measuring the thickness of the epithelium in μm and also by means of the ratio between area of the epithelial layer and length of the basal membrane) (FIG. 8B) and the proliferative ability of the keratinocytes (determined by means of analyses of the expression of PCNA, a marker of cell proliferation) (FIG. 9).

| Molecule | cellular localisation of ER by immunofluorescence [1] | activation of ERE-luciferase construct (genomic pathway) [2] | cornification of vaginal epithelium (hematoxylin and eosin) [3] | stratification of the vaginal epithelium and hyperkeratosis (hematoxylin and eosin) [3] | increase in epithelial thickness, KGF versus E2 ([3]; KGF at 30 ng/25 ul and E2 at 1 ug/25 ul, FIG. 8B) | epithelium lubrication / mucinous (PAS-positive) cells ([3]; topical KGF, PAS staining, FIG. 9B) | vaginal thinning / epithelial cell proliferation ([3]; topical KGF, ovariectomised mice, FIG. 9) |
| --- | --- | --- | --- | --- | --- | --- | --- |
| C[C@]12CC[C@@H]3c4ccc(O)cc4CC[C@H]3[C@@H]1CC[C@@H]2O [E2, 17β-oestradiol] | movement of ER in the nucleus | able to determine the activation of such a construction | Cornificated vaginal epithelium was observed | significant induction of stratification of the vaginal epithelium and hyperkeratosis | – | – | – |
| B1 | unexpected localisation of ER on the plasmatic membrane | absence of stimulation of the genomic pathway of the oestrogens | Cornificated vaginal epithelium was observed | significant induction of stratification of the vaginal epithelium and hyperkeratosis | same increase in epithelial thickness | restore epithelium lubrication through stimulation of mucinous cells | able to counteract vaginal thinning by stimulating epithelial cells proliferation |
